Measurements reported in paper PMC6350941 (Cell reports, 2019).
Where two headings read alike, the source gives them in different places. Values belong to the binder of their own block, whether it stands above or below them.

Assays:
[1] = target: chicken FANCD2 (His-tagged) (chicken, UniProt Q68Y81 1-1439); experiment: SEC
[2] = target: T1, FANCI (human);FANCD2 (human) (human;human, UniProt Q9NVI1;Q9BXW9 1-1328;1-1451, |); experiment: EMSA
[3] = target: FANCI (chicken);FANCD2 (chicken) (chicken;chicken, UniProt B0I564;Q68Y81 1-1338;1-1439, |); experiment: EMSA
FANCI (human) = FANCI (human) (human, UniProt Q9NVI1 1-1328); experiment: EMSA
FANCI (chicken) = target: T2, FANCI (chicken) (chicken, UniProt B0I564 1-1338); experiment: EMSA
T2 sequence: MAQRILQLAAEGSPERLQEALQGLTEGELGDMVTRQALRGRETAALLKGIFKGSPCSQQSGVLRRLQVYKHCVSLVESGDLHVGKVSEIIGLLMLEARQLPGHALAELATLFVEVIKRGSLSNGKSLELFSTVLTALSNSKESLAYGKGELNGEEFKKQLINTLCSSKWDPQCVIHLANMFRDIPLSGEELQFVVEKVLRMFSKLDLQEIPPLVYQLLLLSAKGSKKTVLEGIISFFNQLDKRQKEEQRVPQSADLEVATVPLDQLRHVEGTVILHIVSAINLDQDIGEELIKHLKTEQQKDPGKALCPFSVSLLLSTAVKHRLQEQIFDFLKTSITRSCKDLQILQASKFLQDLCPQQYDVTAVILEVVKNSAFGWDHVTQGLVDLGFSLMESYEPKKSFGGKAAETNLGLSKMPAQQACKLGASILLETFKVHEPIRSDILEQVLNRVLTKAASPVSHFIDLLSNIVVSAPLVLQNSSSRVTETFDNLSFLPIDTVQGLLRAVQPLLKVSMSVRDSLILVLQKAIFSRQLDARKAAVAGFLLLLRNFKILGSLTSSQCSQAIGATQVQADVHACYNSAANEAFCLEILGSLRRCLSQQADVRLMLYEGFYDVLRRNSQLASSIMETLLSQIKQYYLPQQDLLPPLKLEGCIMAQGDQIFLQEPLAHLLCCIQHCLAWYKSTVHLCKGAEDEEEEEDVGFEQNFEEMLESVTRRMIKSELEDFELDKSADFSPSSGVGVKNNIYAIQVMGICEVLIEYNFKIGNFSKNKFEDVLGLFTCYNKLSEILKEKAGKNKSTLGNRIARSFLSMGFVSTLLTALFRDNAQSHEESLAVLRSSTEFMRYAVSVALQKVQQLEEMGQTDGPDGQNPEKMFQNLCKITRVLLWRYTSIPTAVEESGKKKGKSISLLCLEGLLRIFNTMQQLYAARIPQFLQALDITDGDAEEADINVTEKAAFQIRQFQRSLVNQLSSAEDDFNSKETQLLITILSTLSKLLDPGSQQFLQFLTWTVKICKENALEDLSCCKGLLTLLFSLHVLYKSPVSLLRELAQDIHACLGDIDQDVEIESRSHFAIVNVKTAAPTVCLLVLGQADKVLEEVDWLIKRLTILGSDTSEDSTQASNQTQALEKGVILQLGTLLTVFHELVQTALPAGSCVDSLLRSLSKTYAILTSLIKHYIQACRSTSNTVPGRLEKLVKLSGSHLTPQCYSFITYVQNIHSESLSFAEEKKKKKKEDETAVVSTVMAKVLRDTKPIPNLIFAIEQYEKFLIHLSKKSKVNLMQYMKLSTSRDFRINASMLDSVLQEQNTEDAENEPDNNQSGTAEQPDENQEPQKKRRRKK

FANCD2 (chicken) = FANCD2 (chicken) (chicken, UniProt Q68Y81 1-1439); experiment: EMSA
[4] = target: T1, FANCI (human);FANCD2 (human); experiment: EMSA; remark: listed apart in the source
[5] = target: T1, FANCI (human);FANCD2 (human); experiment: EMSA; remark: listed apart in the source
[6] = target: T1, FANCI (human);FANCD2 (human); experiment: EMSA; remark: listed apart in the source
[7] = target: T1, FANCI (human);FANCD2 (human); experiment: EMSA; remark: listed apart in the source

FANCI (human), sequence (Q9NVI1 whole entry): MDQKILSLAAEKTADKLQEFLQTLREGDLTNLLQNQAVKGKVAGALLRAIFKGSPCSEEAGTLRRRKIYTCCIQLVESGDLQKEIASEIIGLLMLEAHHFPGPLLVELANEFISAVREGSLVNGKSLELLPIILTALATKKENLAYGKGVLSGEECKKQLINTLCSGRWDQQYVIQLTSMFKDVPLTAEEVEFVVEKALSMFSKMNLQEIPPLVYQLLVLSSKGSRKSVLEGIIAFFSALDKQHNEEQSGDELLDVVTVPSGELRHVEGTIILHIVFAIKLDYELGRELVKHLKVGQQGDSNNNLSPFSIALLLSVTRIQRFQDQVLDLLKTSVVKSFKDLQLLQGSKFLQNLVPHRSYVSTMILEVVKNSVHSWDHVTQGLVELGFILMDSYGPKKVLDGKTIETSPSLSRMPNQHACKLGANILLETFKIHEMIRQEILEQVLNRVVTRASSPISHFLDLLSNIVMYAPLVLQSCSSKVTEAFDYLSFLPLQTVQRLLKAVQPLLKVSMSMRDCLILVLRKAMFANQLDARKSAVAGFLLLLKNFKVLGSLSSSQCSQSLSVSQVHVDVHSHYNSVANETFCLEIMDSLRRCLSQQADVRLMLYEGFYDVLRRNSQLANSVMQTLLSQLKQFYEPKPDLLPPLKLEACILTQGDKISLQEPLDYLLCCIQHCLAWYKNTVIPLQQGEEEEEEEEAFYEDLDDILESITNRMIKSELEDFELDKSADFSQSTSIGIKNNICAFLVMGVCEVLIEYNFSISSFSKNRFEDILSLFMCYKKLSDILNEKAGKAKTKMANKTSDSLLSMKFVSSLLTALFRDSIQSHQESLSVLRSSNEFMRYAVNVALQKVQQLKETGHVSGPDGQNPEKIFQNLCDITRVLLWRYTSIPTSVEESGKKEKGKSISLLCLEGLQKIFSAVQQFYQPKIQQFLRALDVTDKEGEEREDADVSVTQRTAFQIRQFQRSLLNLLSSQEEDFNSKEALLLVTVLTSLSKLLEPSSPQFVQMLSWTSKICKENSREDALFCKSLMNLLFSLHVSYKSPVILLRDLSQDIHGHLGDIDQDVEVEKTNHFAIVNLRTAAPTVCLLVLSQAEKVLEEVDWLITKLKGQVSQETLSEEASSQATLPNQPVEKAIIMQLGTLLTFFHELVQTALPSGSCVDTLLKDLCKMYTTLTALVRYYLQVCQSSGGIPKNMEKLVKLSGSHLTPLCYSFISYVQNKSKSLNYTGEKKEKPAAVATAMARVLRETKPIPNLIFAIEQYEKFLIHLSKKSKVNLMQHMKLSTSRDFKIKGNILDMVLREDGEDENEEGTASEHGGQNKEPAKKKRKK
T1 sequence (Q9NVI1 whole entry, chain 1 of 2): as the sequence (Q9NVI1 whole entry) above
T1 sequence (Q9BXW9 whole entry, chain 2 of 2): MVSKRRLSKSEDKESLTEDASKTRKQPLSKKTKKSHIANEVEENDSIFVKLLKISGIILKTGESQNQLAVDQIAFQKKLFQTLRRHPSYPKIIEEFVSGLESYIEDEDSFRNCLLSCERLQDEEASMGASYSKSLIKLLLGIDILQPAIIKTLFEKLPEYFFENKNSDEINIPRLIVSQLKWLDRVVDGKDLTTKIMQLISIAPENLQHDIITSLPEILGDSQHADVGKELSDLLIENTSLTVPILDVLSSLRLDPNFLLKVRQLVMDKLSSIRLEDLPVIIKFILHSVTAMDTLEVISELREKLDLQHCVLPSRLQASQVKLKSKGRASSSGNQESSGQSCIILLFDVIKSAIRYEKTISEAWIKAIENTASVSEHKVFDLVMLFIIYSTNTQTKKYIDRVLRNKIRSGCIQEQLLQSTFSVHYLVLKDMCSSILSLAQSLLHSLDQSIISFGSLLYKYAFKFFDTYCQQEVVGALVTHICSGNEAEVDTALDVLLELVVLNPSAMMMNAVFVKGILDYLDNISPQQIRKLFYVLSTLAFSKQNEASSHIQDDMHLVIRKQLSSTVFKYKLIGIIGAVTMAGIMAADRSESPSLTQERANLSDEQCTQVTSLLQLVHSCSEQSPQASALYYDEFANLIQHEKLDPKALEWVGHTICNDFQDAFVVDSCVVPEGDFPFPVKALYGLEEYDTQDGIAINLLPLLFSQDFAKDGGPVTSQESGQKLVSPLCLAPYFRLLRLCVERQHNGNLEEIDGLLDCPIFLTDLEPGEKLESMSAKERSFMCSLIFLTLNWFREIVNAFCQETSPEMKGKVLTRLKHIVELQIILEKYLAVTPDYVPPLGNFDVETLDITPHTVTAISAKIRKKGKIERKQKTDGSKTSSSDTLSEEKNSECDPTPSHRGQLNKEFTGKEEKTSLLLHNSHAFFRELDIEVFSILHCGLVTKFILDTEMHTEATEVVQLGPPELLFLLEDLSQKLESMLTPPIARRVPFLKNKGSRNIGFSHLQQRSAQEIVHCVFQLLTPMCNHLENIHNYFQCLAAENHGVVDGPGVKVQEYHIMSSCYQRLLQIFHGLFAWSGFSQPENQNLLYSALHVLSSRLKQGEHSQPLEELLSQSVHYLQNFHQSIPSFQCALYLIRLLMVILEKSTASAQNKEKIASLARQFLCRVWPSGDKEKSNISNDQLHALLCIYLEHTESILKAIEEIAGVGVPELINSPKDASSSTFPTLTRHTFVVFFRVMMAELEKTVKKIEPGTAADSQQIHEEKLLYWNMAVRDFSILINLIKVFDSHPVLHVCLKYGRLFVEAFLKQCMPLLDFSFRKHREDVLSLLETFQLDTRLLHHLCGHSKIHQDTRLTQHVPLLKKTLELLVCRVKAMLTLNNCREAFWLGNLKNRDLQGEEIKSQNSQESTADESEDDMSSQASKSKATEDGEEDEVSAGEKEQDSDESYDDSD
FANCI (chicken);FANCD2 (chicken), sequence (Q68Y81 whole entry, one chain of several): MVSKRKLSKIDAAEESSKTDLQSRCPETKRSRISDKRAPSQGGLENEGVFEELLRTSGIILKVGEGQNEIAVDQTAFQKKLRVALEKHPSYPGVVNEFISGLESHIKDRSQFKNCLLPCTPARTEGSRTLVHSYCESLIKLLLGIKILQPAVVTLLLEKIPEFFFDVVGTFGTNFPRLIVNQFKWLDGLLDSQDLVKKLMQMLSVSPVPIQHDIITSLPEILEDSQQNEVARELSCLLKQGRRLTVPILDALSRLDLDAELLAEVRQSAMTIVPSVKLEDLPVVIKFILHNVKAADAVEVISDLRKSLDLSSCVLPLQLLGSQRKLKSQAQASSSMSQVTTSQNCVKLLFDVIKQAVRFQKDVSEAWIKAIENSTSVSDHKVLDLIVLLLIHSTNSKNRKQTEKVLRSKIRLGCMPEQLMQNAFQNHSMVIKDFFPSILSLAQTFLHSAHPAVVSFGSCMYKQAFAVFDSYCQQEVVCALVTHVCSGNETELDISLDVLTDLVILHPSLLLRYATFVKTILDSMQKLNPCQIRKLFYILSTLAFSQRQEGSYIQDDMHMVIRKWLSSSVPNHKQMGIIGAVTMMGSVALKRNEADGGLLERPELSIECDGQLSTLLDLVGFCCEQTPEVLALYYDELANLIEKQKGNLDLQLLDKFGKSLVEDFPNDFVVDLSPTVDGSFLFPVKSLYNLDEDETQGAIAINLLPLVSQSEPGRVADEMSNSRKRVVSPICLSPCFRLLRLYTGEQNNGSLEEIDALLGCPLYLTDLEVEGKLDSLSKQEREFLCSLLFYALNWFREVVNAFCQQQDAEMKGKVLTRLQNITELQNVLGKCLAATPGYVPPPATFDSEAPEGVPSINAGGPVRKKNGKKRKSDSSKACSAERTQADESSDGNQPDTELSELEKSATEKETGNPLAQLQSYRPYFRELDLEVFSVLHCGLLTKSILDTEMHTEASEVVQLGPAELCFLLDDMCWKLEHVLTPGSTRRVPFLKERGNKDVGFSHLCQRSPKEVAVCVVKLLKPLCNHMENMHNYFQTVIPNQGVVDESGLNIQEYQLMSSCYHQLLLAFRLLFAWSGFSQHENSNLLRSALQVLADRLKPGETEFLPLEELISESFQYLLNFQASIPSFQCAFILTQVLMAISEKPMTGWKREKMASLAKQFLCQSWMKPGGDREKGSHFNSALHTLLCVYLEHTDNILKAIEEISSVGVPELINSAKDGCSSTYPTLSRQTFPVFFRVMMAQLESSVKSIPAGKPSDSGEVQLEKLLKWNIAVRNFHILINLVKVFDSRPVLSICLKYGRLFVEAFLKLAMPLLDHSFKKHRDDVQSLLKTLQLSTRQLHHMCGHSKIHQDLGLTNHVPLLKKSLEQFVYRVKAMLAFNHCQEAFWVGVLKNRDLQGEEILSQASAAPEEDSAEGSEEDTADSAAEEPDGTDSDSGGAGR
FANCD2 (chicken), sequence (Q68Y81 whole entry): as the sequence (Q68Y81 whole entry, one chain of several) above
chicken FANCD2 (His-tagged), sequence (Q68Y81 whole entry): as the sequence (Q68Y81 whole entry, one chain of several) above

binding result [1]: binds
B1: chicken FANCI (His-tagged) (natural protein, UniProt B0I564 1-1338, looked up)
chain: T2 sequence

B2: ssDNA / ssDNA(G28) (ssDNA)
DNA: TGATAAGAGGTCATTTGAATTCATGGCTTAGAGCTTAATTGCTGAATCTGGTGCTGGGAT
binding result [2]: binds

B3: dsDNA / dsDNA(G28) (dsDNA)
DNA 1: B2 DNA
DNA 2: ATCCCAGCACCAGATTCAGCAATTAAGCTCTAAGCCATGAATTCAAATGACCTCTTATCA
binding result [2]: binds

B4: RNA:DNA hybrid (DNA:RNA)
DNA: B2 DNA
RNA: AUCCCAGCACCAGAUUCAGCAAUUAAGCUCUAAGCCAUGAAUUCAAAUGACCUCUUAUCA
binding result [3]: binds | binding result (FANCI (human)): binds | binding result (FANCI (chicken)): binds | binding result (FANCD2 (chicken)): binds

B5: R-loop(G45) = R-loop(GGC) (mixed)
DNA 1: CATTGCATATTTAAAACATGTTGGAGTGAGTGCGTGGCTGAGATCGGGATTGCTGAGTCTGGTGCTTCAAATGACCTCTTATCAAGTGAC
RNA: CGUGGUCUGAGUCGUUAGGGCUAGAGUCGGUGCGUGAGUG
DNA 2: GTCACTTGATAAGAGGTCATTTGAACACTCACGCACCGACTCTAGCCCTAACGACTCAGACCACGTCCAACATGTTTTAAATATGCAATG
binding result [4]: binds

B6: R-loop(GAT) (mixed)
DNA 1: B5 DNA 1
RNA: AAAAAAAUAAAAAAAUAAAAAAAAUAAAAAAAUAAAAAAA
DNA 2: GTCACTTGATAAGAGGTCATTTGAATTTTTTTATTTTTTTATTTTTTTTATTTTTTTATTTTTTTTCCAACATGTTTTAAATATGCAATG
binding result [5]: binds

B7: D-loop(GGC) (structured_DNA)
DNA 1: B5 DNA 1
DNA 2: CGTGGTCTGAGTCGTTAGGGCTAGAGTCGGTGCGTGAGTG
DNA 3: B5 DNA 2
binding result [6]: binds

B8: R-loop(G30_G-quad) (mixed)
DNA 1: CATTGCATATTTAAAACATGTTGGATTTAATTCAGGGCTTAGGGCTTGGGTACTGGGTCTAATACTTCAAATGACCTCTTATCAAGTGAC
RNA: B5 RNA
DNA 2: B5 DNA 2
binding result [7]: binds

B9: ssDNA(G48) (ssDNA)
DNA: GGATGAGAGGGCATGTGAGTGCGTGGCTGAGAGCGGGATTGCTGAGTCTGGTGCTGGGAT
binding result [2]: binds

B10: ssRNA / ssRNA(G28) (ssRNA)
RNA: UGAUAAGAGGUCAUUUGAAUUCAUGGCUUAGAGCUUAAUUGCUGAAUCUGGUGCUGGGAU
binding result [2]: binds | binding result [3]: binds | binding result (FANCI (human)): binds | binding result (FANCI (chicken)): binds | binding result (FANCD2 (chicken)): binds

B11: dsRNA / dsRNA(G28) (dsRNA)
RNA 1: B10 RNA
RNA 2: B4 RNA
binding result [3]: binds | binding result (FANCI (human)): binds | binding result (FANCI (chicken)): binds | binding result (FANCD2 (chicken)): binds

B12: ssRNA(G48) (ssRNA)
RNA: GGAUGAGAGGGCAUGUGAGUGCGUGGCUGAGAGCGGGAUUGCUGAGUCUGGUGCUGGGAU
binding result [2]: binds
